The values below are quoted from earlier work in PMC3789827.

Data set [1] has as its target BMPR1B ECD (Homo sapiens) (UniProt O00238). The data set can be described thus: SPR (Biacore). On the technique in general: Surface plasmon resonance follows binding to a sensor surface in real time, without labels.
Data set [2] deals with BMPR1A ECD (Homo sapiens) (UniProt P36894). As to the kind of experiment: SPR (Biacore).
Chain of BMPR1A ECD (Homo sapiens) (P36894 24-152): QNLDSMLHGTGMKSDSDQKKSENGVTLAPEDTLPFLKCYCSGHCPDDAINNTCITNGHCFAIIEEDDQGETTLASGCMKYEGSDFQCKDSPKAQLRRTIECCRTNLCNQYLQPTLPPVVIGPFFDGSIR

Chain of GDF5 (P43026 382-501): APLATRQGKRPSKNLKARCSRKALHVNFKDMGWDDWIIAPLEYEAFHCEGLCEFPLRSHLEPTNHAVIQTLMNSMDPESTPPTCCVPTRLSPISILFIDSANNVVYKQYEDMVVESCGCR
Chain of BMPR1B ECD (Homo sapiens) (O00238 14-126): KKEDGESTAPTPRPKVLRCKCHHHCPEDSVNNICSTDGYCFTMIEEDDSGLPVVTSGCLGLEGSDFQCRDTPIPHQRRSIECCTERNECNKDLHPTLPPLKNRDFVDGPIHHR

As usually defined, the Kd is the free concentration of one partner at which half of the binding sites on the other are occupied at equilibrium, for simple one-to-one binding. As to GDF5 (from UniProt P43026), the Kd is 1.1 nM in data set [1] and 17 nM in data set [2].
